Publication PMC8113403, “Assembly of Natively Synthesized Dual Chromophores Into Functional Actinorhodopsin” (Frontiers in Microbiology, 2021)

Test system: Asp85
Assay: UV-vis
Details: not stated (0.02% DDM solution; pH adjusted with small amounts of HCl or NaOH); Purified, detergent-solubilised holoprotein with all-trans-retinal; no carotenoid; light adaptation not stated

Actinorhodopsin ActR-13023 (Candidatus Aquiluna sp. IMCC13023)
pKa: ≈ 7.81

Actinorhodopsin ActR-13023 E96Q (Candidatus Aquiluna sp. IMCC13023; E96Q)
pKa: 7.67
